Article PMC4191409, “AP endonucleases process 5-methylcytosine excision intermediates during active DNA demethylation in Arabidopsis”

What was measured:
MBP-APE1L = target: T1, MBP-APE1L (Arabidopsis thaliana (Col-0), UniProt Q5XF07 1-364); experiment: EMSA; no Mg2+ listed; 100 and 300 nM protein, 50 nM DNA; EMSA: 10 mM Tris-HCl pH 8.0, 150 mM NaCl, 0.05% Triton X-100, 0.1 mg/mL BSA, 10% glycerol, 10 mM DTT; on ice 10 min; 8% native gel; settings: protein: recombinant; tags: N-terminal MBP (HRV 3C site); HisTrap purified; label: 32P (5' end of strand 1); blunt
T1 sequence: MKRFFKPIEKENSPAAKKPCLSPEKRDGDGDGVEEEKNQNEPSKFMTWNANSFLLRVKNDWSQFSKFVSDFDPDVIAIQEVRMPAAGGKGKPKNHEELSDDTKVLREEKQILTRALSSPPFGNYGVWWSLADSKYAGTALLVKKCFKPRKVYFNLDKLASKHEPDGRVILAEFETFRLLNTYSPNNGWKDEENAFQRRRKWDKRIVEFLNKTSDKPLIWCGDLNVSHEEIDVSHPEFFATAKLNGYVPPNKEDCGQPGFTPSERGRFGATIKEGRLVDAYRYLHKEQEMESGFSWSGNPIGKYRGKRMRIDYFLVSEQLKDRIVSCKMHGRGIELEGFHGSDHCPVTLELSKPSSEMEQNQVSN

MBP-ARP = target: T2, MBP-ARP (Arabidopsis thaliana (Col-0), UniProt P45951 1-536); experiment: as above; settings: protein: recombinant; tags: N-terminal MBP (HRV 3C site); HisTrap purified; label: 32P (5' end of strand 1); blunt
T2 sequence: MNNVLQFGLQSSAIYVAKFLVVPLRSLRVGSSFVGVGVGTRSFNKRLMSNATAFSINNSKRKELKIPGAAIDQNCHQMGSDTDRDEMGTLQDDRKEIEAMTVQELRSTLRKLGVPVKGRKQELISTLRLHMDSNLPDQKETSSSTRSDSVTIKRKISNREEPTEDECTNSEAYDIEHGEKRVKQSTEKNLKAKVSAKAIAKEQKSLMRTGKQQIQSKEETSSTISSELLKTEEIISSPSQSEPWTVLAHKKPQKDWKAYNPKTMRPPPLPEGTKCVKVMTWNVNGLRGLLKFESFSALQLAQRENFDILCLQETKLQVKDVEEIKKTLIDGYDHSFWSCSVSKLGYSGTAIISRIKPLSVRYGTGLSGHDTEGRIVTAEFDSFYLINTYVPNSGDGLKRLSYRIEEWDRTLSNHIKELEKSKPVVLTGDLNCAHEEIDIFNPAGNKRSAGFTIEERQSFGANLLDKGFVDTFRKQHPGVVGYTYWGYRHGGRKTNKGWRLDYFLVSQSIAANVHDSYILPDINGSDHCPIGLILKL

B1: F35[5mC]/R35 (5mC 35-mer) (dsDNA)
DNA 1: GTACTGTGTGATACTATCGAATTCAGTATGATCTG
DNA 2: CAGATCATACTGAATTCGATAGTATCACACAGTAC
modifications: 5-methylcytosine at position 18 of strand 1
binding result (MBP-APE1L): binds | binding result (MBP-ARP): binds
